US11879019B2, “Dual-enzyme responsive peptides” (THE REGENTS OF THE UNIVERSITY OF CALIFORNIA, priority 2016, dated 2024)
“Also recorded” adds a separate entry of the source. Where two headings read alike, the source gives them in different places. Square brackets hold non-standard residues; d marks the D form. Side chains are listed from the residue outwards. Peptide text beside a SMILES is read from it. * marks the point of attachment. ξ: configuration not given here. X2 = CN(CCN*)C(=S)Oc1ccc2c3c1O[C@H]1C(=O)CC[C@@]4(O)[C@@H](C2)N(CC2CC2)CC[C@]314; X1 = CN(CCN*)C(=O)Oc1ccc2c3c1OC1C(=O)CCC4(O)C(C2)N(CC2CC2)CCC314; X3 = CC(=O)N[C@@H](CCCCN*)C(=O)Nc1ccc([N+](=O)[O-])cc1; X4 = CN(CCN*)C(=O)Oc1ccc([N+](=O)[O-])cc1; Trt = c1ccc(C(c2ccccc2)(c2ccccc2)*)cc1; pNA = O=[N+]([O-])c1ccc(N*)cc1; ξF = NC(Cc1ccccc1)C(=O)O; Boc = CC(C)(C)OC(=O)*; ξK = NCCCCC(N)C(=O)O; ξC = NC(CS)C(=O)O; ξA = CC(N)C(=O)O

Legend:
caspase 8 and trypsin = experiment: Caspase 8 + trypsin assay (pNA release, absorbance at 405 nm); assay type: biochemical; conditions: for cleavage by caspase 8 (absorbance increase): caspase 8 only, commercial single enzyme substrates
Description: (§1) Caspase 3 was taken directly from stock solution containing 1000 U/μL. A stock solution of trypsin was prepared by dissolving the enzyme (5 mg/ml) in 1 mM HCl. The peptide substrates were dissolved in DMSO to make 10 mM solutions. These were then diluted to 2.5 mM with pH 7.5 0.1 M HEPES containing 10 mM DTT, 2 mM EDTA, and 10% v/v glycerol. In a 96-well plate, 84 μL of buffer and 5 μL peptide were mixed together before measuring the absorbance at 405 nm to serve as a blank. 1 μL caspase-3 was added, and the plate was incubated at 23° C. for 12-24 hours and absorbance was measured again. Then, 5 μL trypsin were added to the well and absorbance measurements were taken at pre-determined time points. All conditions prepared and measured in triplicate. The same protocol was used for caspase 8 assays, adjusting peptide substrate concentration as needed.

[1] = for stability of the linker: over the entire pH range
Description: The stabilities of these linkages were assessed by HPLC by monitoring the relative amount of Naltrexone versus the intact peptide-Naltrexone conjugate.

trypsin and chymotrypsin [2] = experiment: Trypsin + chymotrypsin assay (pNA release, absorbance at 405 nm); assay type: biochemical; conditions: for absorbance increase at 405 nm (pNA release): trypsin + chymotrypsin
Description: Stock solutions of enzymes were prepared by dissolving trypsin (60 mg/ml) in 1 mM HCl and chymotrypsin (60 mg/ml) in pH 7.4 0.035M HEPES+0.1M NaCl. The peptide substrate, (Ac-AAF)K-pNA, was dissolved in DMSO to make a 1 mM stock solution.
(§2) To wells in a 96-well plate, 87.5 μL pH 7.4 0.035M HEPES+0.1M NaCl and 2.5 μL peptide substrate were added. Absorbance was measured using a plate reader at 405 nm. Then, 5 μL trypsin and 5 μL chymotrypsin were added to the wells, and absorbance was measured at pre-determined time points. Absorbance values were subtracted from initial reading of only buffer and peptide. When testing only one enzyme, 5 μL buffer were added to keep total volume per well at 100 μL. All conditions prepared and measured in triplicate.
as §2, with “Stock solutions of enzymes were prepared by dissolving trypsin (60 mg/ml) in 1 mM HCl and chymotrypsin (60 mg/ml) in pH 7.4 0.035M HEPES+0.1M NaCl. The peptide substrate, (Ac-AAF)K-pNA, was dissolved in DMSO to make a 1 mM stock solution. To” for “To”, “were” for “prepared and”

papain and trypsin = experiment: Papain + trypsin assay (pNA release, absorbance at 405 nm); assay type: biochemical
Description: Papain was reconstituted in deionized water at a concentration of 1 mg/ml. A stock solution of trypsin was prepared by dissolving the enzyme (10 mg/ml) in 1 mM HCl. The peptide substrate, (AcFG)K-pNA was dissolved in DMSO to make a 5 mM solution. Separately, 3M NaCl and 20 mM EDTA+50 mM cysteine (pH 6.2) solutions were prepared with deionized water. In a 96-well plate, 5 μL substrate were mixed with 45 μL NaCl and 40 μL EDTA+cysteine solutions. Absorbance was measured at 405 nm to serve as a blank. Then, 5 μL of both enzyme solutions were added, and absorbance measurements were taken at pre-determined time points. All conditions were prepared and measured in quadruplicate.

trypsin and chymotrypsin [3] = experiment: pNA release assay of CAAK(F)-diamino-pNA; assay type: biochemical; conditions: 2 mM, trypsin and/or chymotrypsin, 90 minutes, 37° C.
Description: A stock solution of the CAAK(F)-diamino-pNA (SEQ ID NO: 4) was prepared in dimethyl sulfoxide (DMSO) to produce a 16.0 mg/mL solution. A 7.5 mg/mL stock solution of the trypsin was prepared in 50 mM NH4HCO3 buffer (pH=8.05). A 7.5 mg/mL stock solution of chymotrypsin was prepared in 50 mM NH4HCO3 buffer (pH=8.05).
A 96 well plate was used for monitoring the solutions at 405 nm using a plate reader. 20 μL of the peptide was combined with 62.0/66.6 μL of no enzyme, trypsin only, chymotrypsin only, or with both enzymes respectively. All solutions were diluted to a total volume of 200 μL using 50 mM NH4HCO3 (pH=8.05). Blanks were prepared by combining the enzymes with DMSO/buffer and their absorbances were subtracted from the cleavage conditions. Additionally, the residual signal from the peptide in the presence of no enzymes was also used as a blank and subtracted out from enzymatic conditions.

caspase 3 and trypsin = experiment: Caspase 3 + trypsin assay (pNA release, absorbance at 405 nm); assay type: biochemical
Description: as §1

[4] = 500 μM, caspase 8 for 24 hours before adding trypsin

Which absorbance increase (caspase 8 and trypsin; [4]) does the source give for CC[C@H](C)[C@H](NC(C)=O)C(=O)N[C@@H](CCC(=O)O)C(=O)N1CCC[C@H]1C(=O)N[C@@H](CC(=O)O)C(=O)NCCCC[C@H](NC(C)=O)C(=O)Nc1ccc([N+](=O)[O-])cc1 [(AcIEPD)K-pNA] (Ac-IEPD-X3) here?
Its absorbance increase is “did not result in a significant absorbance increase”.

And the absorbance increase (caspase 8 and trypsin; caspase 8 and trypsin, initial experiments)?
The absorbance increase was “little to no absorbance increase”.

For CC(=O)NC(CSC(c1ccccc1)(c1ccccc1)c1ccccc1)C(=O)NC(C)C(=O)NC(C)C(=O)NC(CCCCNC(=O)C(Cc1ccccc1)NC(=O)OC(C)(C)C)C(=O)NCCN(C)C(=O)Oc1ccc2c3c1OC1C(=O)CCC4(O)C(C2)N(CC2CC2)CCC314 (stereo not shown) [NPC] (Ac-C(Trt)AAK([Phe-Boc])-X1; configuration not given here), which “Percent Degradation, t = 0.5 hr” value ([1]; conjugate without pH buffer) is on record?
Its value is 0%.

And the “Percent Degradation, t = 24 hr” value ([1]; conjugate without pH buffer)?
Its value is 0%.

What about the “stability of the linker” value [1] of the same molecule?
The value was “very good stability”.

And the “Percent Degradation, t = 0.5 hr” value ([1]; pH 2)?
Its value is 6.00%.

What about the “Percent Degradation, t = 24 hr” value ([1]; pH 2) of the same molecule?
Its value is 12.30%.

And the “Percent Degradation, t = 0.5 hr” value ([1]; pH 4)?
The value was 3.50%.

And the “Percent Degradation, t = 24 hr” value ([1]; pH 4)?
The value was 2.89%.

What about the “Percent Degradation, t = 0.5 hr” value ([1]; pH 7) of the same molecule?
Its value is 1.50%.

What about the “Percent Degradation, t = 24 hr” value ([1]; pH 7) of the same molecule?
The value was 3.62%.

And the “Percent Degradation, t = 0.5 hr” value ([1]; pH 9)?
Its value is 5.56%.

What about the “Percent Degradation, t = 24 hr” value ([1]; pH 9) of the same molecule?
The value was 5.17%.

And the “Percent Degradation, t = 0.5 hr” value ([1]; pH 12)?
The value was 7.03%.

What about the “Percent Degradation, t = 24 hr” value ([1]; pH 12) of the same molecule?
Its value is 6.94%.

Which results are given for CC(=O)N[C@@H](C)C(=O)N[C@@H](C)C(=O)N[C@@H](Cc1ccccc1)C(=O)NCCCC[C@H](NC(C)=O)C(=O)Nc1ccc([N+](=O)[O-])cc1 [(AcAAF)K-pNA]?
change in absorbance at 405 nm (trypsin and chymotrypsin [2]; 100 μM peptide, chymotrypsin only): no change in absorbance; absorbance increase at 405 nm (trypsin and chymotrypsin [2]; 100 μM peptide, trypsin only): 0.016±0.002 AU; absorbance increase at 405 nm (pNA release) (trypsin and chymotrypsin [2]; 100 μM substrate): 0.070±0.002 AU; absorbance increase at 405 nm (pNA release) (trypsin and chymotrypsin [2]; 200 μM substrate): 0.147±0.002 AU; absorbance increase at 405 nm (pNA release) (trypsin and chymotrypsin [2]; after five hours): 0.039±0.003 AU

With “AcDEVD-pNA: commercially available single enzyme caspase substrate (SEQ ID NO: 7)” as the molecule, how does the “cleavage by caspase 8 (absorbance increase)” value (caspase 8 and trypsin) read?
The value was “cleaved as expected; also recorded: significant absorbance increase over time”.

With CC(=O)N[C@@H](Cc1ccccc1)C(=O)NCC(=O)NCCCC[C@H](NC(C)=O)C(=O)Nc1ccc([N+](=O)[O-])cc1 [(AcFG)K-pNA] as the molecule, how does the absorbance increase (papain and trypsin; each enzyme separately (papain only or trypsin only)) read?
The absorbance increase was “no absorbance increase”.

And the pNA release (papain and trypsin; papain and trypsin, varying substrate concentrations)?
The pNA release was “substrate dependent”.

With “AcIEPD-pNA: commercially available single enzyme caspase substrate (SEQ ID NO: 8) (Ac-IEPD-pNA; SMILES CC[C@H](C)[C@H](NC(C)=O)C(=O)N[C@@H](CCC(=O)O)C(=O)N1CCC[C@H]1C(=O)N[C@@H](CC(=O)O)C(=O)Nc1ccc([N+](=O)[O-])cc1)” as the molecule, how does the “cleavage by caspase 8 (absorbance increase)” value (caspase 8 and trypsin) read?
Its value is “cleaved as expected; also recorded: significant absorbance increase over time”.

Which “theoretical pNA released” value (trypsin and chymotrypsin [3]) does the source give for CC(=O)NC(CS)C(=O)NC(C)C(=O)NC(C)C(=O)NC(CCCCNC(=O)C(N)Cc1ccccc1)C(=O)NCCN(C)C(=O)Oc1ccc([N+](=O)[O-])cc1 (stereo not shown) [CAAK(F)-diamino-pNA] (Ac-CAAK(Phe)-X4; configuration not given here) here?
Its value is 55%.

Which “absorbance increase at 405 nm” value (caspase 3 and trypsin; 125 μM substrate, first caspase-3 then trypsin, over 60 minutes) does the source give for CC(=O)N[C@@H](CCCCNC(=O)[C@H](CC(=O)O)NC(=O)[C@@H](NC(=O)[C@H](CCC(=O)O)NC(=O)[C@H](CC(=O)O)NC(C)=O)C(C)C)C(=O)Nc1ccc([N+](=O)[O-])cc1 [(AcDEVD)K-pNA] here?
The value was 0.1±0.006 AU.

What about the “pNA release relative to release from commercial substrate AcDEVD-pNA” value (caspase 3 and trypsin; caspase 3 digestion) of the same molecule?
Its value is 83%.

What about the absorbance increase (caspase 3 and trypsin; trypsin or caspase 3 only) of the same molecule?
The absorbance increase was “no absorbance increase”.

What about the absorbance increase (caspase 8 and trypsin; [4]) of the same molecule?
The absorbance increase was “did not result in a significant absorbance increase”.

Which pNA release (caspase 3 and trypsin; trypsin and caspase 3) does the source give for CC(=O)N[C@@H](CCCCNC(=O)[C@H](CC(=O)O)NC(=O)[C@H](CCC(=O)O)NC(=O)[C@@H](NC(=O)[C@H](CC(=O)O)NC(C)=O)C(C)C)C(=O)Nc1ccc([N+](=O)[O-])cc1 [(AcDVED)K-pNA] (Ac-DVED-X3) here?
The pNA release was “no pNA release”.

For CC(=O)NC(CS)C(=O)NC(C)C(=O)NC(C)C(=O)NC(CCCCNC(=O)C(N)Cc1ccccc1)C(=O)NCCN(C)C(=S)Oc1ccc2c3c1O[C@H]1C(=O)CC[C@@]4(O)[C@@H](C2)N(CC2CC2)CC[C@]314 (stereo partly shown) [NPT] (Ac-[ξC][ξA][ξA][ξK](ξF)-X2), which “Percent Degradation, t = 0.5 hr” value ([1]; conjugate without pH buffer) is on record?
The value was 0.51%.

And the “Percent Degradation, t = 24 hr” value ([1]; conjugate without pH buffer)?
The value was 2.90%.

What about the “stability of the linker” value [1] of the same molecule?
Its value is “more stable than the carbamate linker”.

And the “Percent Degradation, t = 0.5 hr” value ([1]; pH 2)?
Its value is 3.23%.

And the “Percent Degradation, t = 24 hr” value ([1]; pH 2)?
Its value is 4.10%.

What about the “Percent Degradation, t = 0.5 hr” value ([1]; pH 4) of the same molecule?
The value was 1.67%.

And the “Percent Degradation, t = 24 hr” value ([1]; pH 4)?
The value was 2.04%.

What about the “Percent Degradation, t = 0.5 hr” value ([1]; pH 7) of the same molecule?
The value was 3.22%.

And the “Percent Degradation, t = 24 hr” value ([1]; pH 7)?
Its value is 3.59%.

And the “Percent Degradation, t = 0.5 hr” value ([1]; pH 9)?
The value was 4.69%.

And the “Percent Degradation, t = 24 hr” value ([1]; pH 9)?
The value was 3.37%.

And the “Percent Degradation, t = 0.5 hr” value ([1]; pH 12)?
The value was 5.15%.

And the “Percent Degradation, t = 24 hr” value ([1]; pH 12)?
The value was 6.72%.
